Results on two molecules are retold here after patent publication US7265201 (Takeda / Millennium, dated 2007).

What is called Kd is the concentration at which binding is half-saturated.

Assay [1] deals with T1, synthetic human eotaxin (predicted mature protein consisting of amino acids 24-97) (human, UniProt P51671 24-97).
T1 construct: also called clone #25 polypeptide; synthetic mature eotaxin
Kind of assay: Scatchard analysis of competition of unlabeled eotaxin with 125I-eotaxin on purified human eosinophils. As for the experimental part: Binding of RANTES, MIP-1α and human eotaxin was carried out in binding buffer consisting of 50 mM HEPES supplemented with 1 mM CaCl_2, 5 mM MgCl_2 and 0.5% BSA. […] The final reaction volume was 200 μls. Total binding was carried out in the absence of unlabeled chemokines, and non-specific binding was determined by incubating cells with radiolabeled chemokine in the presence of 250 nM of cold chemokine. At the end of incubation, cells were washed 3 times in binding buffer plus 0.5 M NaCl. The cell pellets were transferred into LP3 tubes and counted in a gamma counter.
RANTES and MIP-1a were not able to compete with eotaxin under the conditions used. […] The observed dissociation constant is analogous to other chemokine-receptor dissociation constants.

For assay [2], the target named is T1, synthetic human eotaxin (predicted …). Put plainly: radiolabeled eotaxin on 5×10^5 transfected L1-2 cells, with or without 125 nM unlabeled eotaxin. As for the experimental part: Figure 11: FIG. 11 is a bar graph illustrating the binding of human eotaxin to CKR-3 transfected L1-2 cells. Radiolabeled eotaxin was incubated with 5 ×10^5 transfected cells or untransfected L1-2 cells.

T1 sequence (P51671 24-97): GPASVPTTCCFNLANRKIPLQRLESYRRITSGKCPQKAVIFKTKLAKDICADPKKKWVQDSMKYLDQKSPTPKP

B1: receptor for eotaxin on purified human eosinophils (single class of high affinity binding sites) (receptor)
chain: MTTSLDTVETFGTTSYYDDVGLLCEKADTRALMAQFVPPLYSLVFTFGLLGNVVVVMILIKYRRLRIMTNIYLLNLAISDLLFLVTLPFWIHYVRGHNWVFGHGMCKLLSGFYHTGLYSEIFFIILLTIDRYLAIVHAVFALRARTVTFGVITSIVTWGLAVLAALPEFIFYETEELFEETLCSALYPEDTVYSWRHFHTLRMTIFCLVLPLLVMAICYTGIIKTLLRCPSKKKYKAIRLIFVIMAVFFIFWTPYNVAILLSSYQSILFGNDCERTKHLDLVMLVTEVIAYSHCCMNPVIYAFVGERFRKYLRHFFHRHLLMHLGRYIPFLPSEKLERTSSVSPSTAEPELSIVF
With B1, in assay [1], the Kd was 4.7 nM.

B2: FLAG-tagged human C-C chemokine receptor 3 (CKR-3) expressed on transfected mouse L1-2 pre-B lymphoma cells (receptor)
chain: MDYKDDDDKEFTTSLDTVETFGTTSYYDDVGLLCEKADTRALMAQFVPPLYSLVFTFGLLGNVVVVMILIKYRRLRIMTNIYLLNLAISDLLFLVTLPFWIHYVRGHNWVFGHGMCKLLSGFYHTGLYSEIFFIILLTIDRYLAIVHAVFALRARTVTFGVITSIVTWGLAVLAALPEFIFYETEELFEETLCSALYPEDTVYSWRHFHTLRMTIFCLVLPLLVMAICYTGIIKTLLRCPSKKKYKAIRLIFVIMAVFFIFWTPYNVAILLSSYQSILFGNDCERTKHLDLVMLVTEVIAYSHCCMNPVIYAFVGERFRKYLRHFFHRHLLMHLGRYIPFLPSEKLERTSSVSPSTAEPELSIVF
notes: also called C-C CKR-3; CC-CKR-3
In the case of B2, in assay [2], the binding result is recorded as “binds”.
